Biological target: T1, eIF4E (purified, from pTXB1-eIF4E) (UniProt P06730 1-217)
T1 construct: also called purified eIF4E; source: pTXB1-eIF4E; protein expression and purification as previously described (12)
Experiment: pull-down; competitive: GST-RBM38 on GST beads, 250 µg purified eIF4E and 10 µM peptide in lysis buffer (50 mM Tris pH 7.5, 150 mM NaCl, 0.1% Triton X-100), rocked overnight, washed 3x, western blot
Conditions: both partners purified

T1 sequence (P06730 whole entry): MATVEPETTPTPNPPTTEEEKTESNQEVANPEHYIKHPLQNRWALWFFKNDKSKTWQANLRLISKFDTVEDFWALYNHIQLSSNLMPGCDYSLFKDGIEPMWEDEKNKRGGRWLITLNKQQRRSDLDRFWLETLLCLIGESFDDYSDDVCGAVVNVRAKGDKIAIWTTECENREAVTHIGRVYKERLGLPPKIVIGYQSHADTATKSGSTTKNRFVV

B1: Pep7 (peptide)
peptide: PSAASPV
notes: also called Pep7-PSAASPV; shortened 7-amino acid peptide; source: synthetic peptide (GenScript)
B1: binds.

Reference: paper PMC9095979, “Optimization of eIF4E-Binding Peptide Pep8 to Disrupt the RBM38-eIF4E Complex for Induction of p53 and Tumor Suppression” (Frontiers in Oncology, 2022)
